From the supplement of paper PMC9170038

System: MS2 coat protein
Assay: apparent KD of MS2 coat protein; designed switch direction (-1 OFF switch, 1 ON switch): -1; higher = weaker reporter binding
In short: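 An oligonucleotide input, 200 uM small-molecule ligand, or no input was present during titration of SNAP-549-labelled MS2 coat protein, which was doubled from 0.7 or 1.5 nM to 3 µM. Designed RNA switches had been transcribed on Illumina chips by stalled E. coli RNA polymerase. Apparent KD per design is the median over clusters of curves fitted to normalised cluster fluorescence.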

[1] = Eterna round: R95, input ligand: microRNA oligo, concentration not stated
[2] = Eterna round: R95, input ligand: FMN 200 uM
[3] = Eterna round: R95, input ligand: none
[4] = input ligand: microRNA oligo, concentration not stated

Sequence | apparent KD of MS2 coat protein (input ligand: FMN 200 uM) [nM] | apparent KD of MS2 coat protein (input ligand: none) [nM] | apparent KD of MS2 coat protein [1] [nM] | apparent KD of MS2 coat protein [2] [nM] | apparent KD of MS2 coat protein [3] [nM] | apparent KD of MS2 coat protein [4] [nM]
GGCACACAUGAGGAUCACCCAUGUGAGGAUAUGUGGCGAUCGUCGAAAGACGAUAGCCACAGAAGGCACAGGCC [Eli x1 4.24] (Eterna round: R97, puzzle: Exclusion 1) | 21.4 | 17.8 |  |  |  | 
AUGUAGUAAGGAUAUAGAAAGAAGGAGUAAGAUAGAGAGUUCUAGAAGGUACAUGAGGAUCACCCAUGUUGGAG [JR_Exclu4_Sub081] (puzzle: Exclusion 4) |  |  | 22.2 |  |  | 
UUCAUGUUAGGAUAUUCCGCCACAGAGAAAGACUGUGGAAUGAAGAAGGGACAUGAGGAUCACCCAUGUUCCAA [EX4 A.5] (Eterna round: R97, puzzle: Exclusion 4) | 14.2 | 14.3 |  |  |  | 
UGUUGUUCAGGAUAUGAUGUAUAAUACAUGAGGAUCACCCAUGUAGAUCCUGAAUUAACAUCAGAAGGGAAUAUUU [JL-ex5-4.59 Brourd mod] (Eterna round: R97, puzzle: Exclusion 5) | 19.8 | 17.2 |  |  |  | 
UUUUAACAUGAGGAUCACCCAUGUGAGGAUAUCGAAAUUUAUAUUAAUAUUUAUUUUACGAGAAGGCACAUUUU [JMF 66] (puzzle: Exclusion 1) |  |  | 104 |  |  | 
AUAACAAGCUUUUUUUUCGUCGUAUAUGACGCUCGAGUCACAUGAGGAUCACCCAUGUCUUCCUGUUUGAUUGUUGA [JR_SV3TOV2_Sub057] (puzzle: Sensor v3, turn-off variant 2) |  |  | 154 | 167 | 173 | 
AGCAUGUAAGGAUAUGUAACGCGGCUUUCAUUCGCCGUCCCACAGAAGGUACAUGAGGAUCACCCAUGUGCUCC [Solaisorin] (puzzle: Exclusion 4) |  |  | 33.3 |  |  | 
GGGCUCGGAGGAUAUACAUGAGGAUCACCCAUGUAGGGCCCGGGUAUUCCCGGGCCCUGUAGAAGGCUGGGUCU [-39, -36.1 kcal, A 19%, 0-7] (Eterna round: R97, puzzle: Exclusion 3) | 19.7 | 16.5 |  |  |  | 
ACAUGAGGAUCACCCAUGUCCGGUUGGUCUGUUCCGGCUGUCGAGGAUAUAGUCCGGUGUUCGCGCUAGAAGGUGAGGGCUGGA [Aenatbe mod 46] (Eterna round: R96, puzzle: Exclusion NG 3) | 775 | 500 |  |  |  | 259
GCCUCACUUGAGGAUCACCCAAGUCAGGAUAUCUACAGGCCGGCCAUACCGACCUGCAAGAGAAGGGACUCUAA [Aristi] (Eterna round: R97, puzzle: Exclusion 1) | 211 | 31.4 |  |  |  | 
GCUUGUAGAGGAUAUACAAGGGCCUUAGCGGAUAACACCGCACAUGAGGAUCACCCAUGUAGAAGGCUACCACC [Veorlace] (puzzle: Exclusion 2) |  |  | 16.6 |  |  | 
CCUUAGUCACAGGAUAUGCUCAUCUAAUGAUGAGCAGAAGGGUGAACAUGAGGAUCACCCAUGUUUACCAGGGU [Omei Ex6 E4] (Eterna round: R97, puzzle: Exclusion 6) | 247 | 37.1 |  |  |  | 
CCUCUACAUGAGGAUCACCCAUGUGAGGAUAUAAGAUUGCGAAUUCCGCACUACGGUCUUAGAAGGCGCGUGGA [Riarve] (puzzle: Exclusion 1) |  |  | 15.7 |  |  | 
UGCUACAUGAGGAUCACCCAUGUUAUUUGGGAUUUUUUAGGACAGGAUAUGAUUGUAUUGUUUUUUCAGAAGGGUCAUUACUUU [JR_ExcNG3_Sub013] (Eterna round: R96, puzzle: Exclusion NG 3) | 368 | 347 |  |  |  | 316
CCCUCACAUGAGGAUCACCCAUGUCAGGAUAUCUCACAUCGGCCUUAGGCCGAUGUCUAGAGAAGGGACGUAUC [Ceonte] (puzzle: Exclusion 1) |  |  | 22.9 |  |  | 
AUUAUAAAUGUAGGAUAUCUGCACGUUUAGUGCAGAGAAGGACAUGAGGAUCACCCAUGUAGAUCAAUAAUAAUUAAUUUAAUU [ENG1/5-B2] (Eterna round: R96, puzzle: Exclusion NG 1) | 146 | 33.7 |  |  |  | 29.1
GAUCCACAUGAGGAUCACCCAUGUCAGGAUAUGAUACUAUGUACUUCGGUACAUAGUAUCAGAAGGGACAGAUC [Ex1-3: 2] (puzzle: Exclusion 1) |  |  | 162 |  |  | 
UUUGUUGUUGUGAGGAUAUCGUUGUUAUUUUGAAACGAGAAGGCACAUGAGGAUCACCCAUGUUUGUUGAUGGU [JR_BMOE4_Sub060] (puzzle: Brourd's mod of Exclusion 4) |  |  | 41.5 |  |  | 

Sequence | apparent KD of MS2 coat protein (input ligand: FMN 200 uM) [nM] | apparent KD of MS2 coat protein (input ligand: none) [nM] | apparent KD of MS2 coat protein [1] [nM] | apparent KD of MS2 coat protein [2] [nM] | apparent KD of MS2 coat protein [3] [nM] | apparent KD of MS2 coat protein [4] [nM]
GUCGCUAGAGGAUAUACAAUGGUAUAUGAUCCUAGUGACAUACAUGAGGAUCACCCAUGUAGAAGGCUAGUAUU [Exclusion 2 - 8] (puzzle: Exclusion 2) |  |  | 23.7 |  |  | 
CGUGGUAGGCAGGAUAUUUUAGACAAUUACUUGAAAGAAGGGCCUACAUGAGGAUCACCCAUGUGCUCUUCUUG [EX6 B.3] (Eterna round: R97, puzzle: Exclusion 6) | 16.9 | 16.8 |  |  |  | 
UACAUGAGGAUCACCCAUGUUUUGUCGUGUAUGGUAUUUAUCUAGGAUAUCAAGUUAUUUAGUUAUGAGAAGGAGAAUAUUAAU [JMF's solution 35] (Eterna round: R96, puzzle: Exclusion NG 3) | 31.5 | 40.4 |  |  |  | 31.6
ACAUGAGGAUCACCCAUGUAAUCAUGAUGGCUGAUGUAGAGCUAGGAUAUGAGUGGCUUUCUAUCUCAGAAGGAGCAAGACUGG [Deportation 40 - Jieux - Exclusion NG 3] (Eterna round: R96, puzzle: Exclusion NG 3) | 44.1 | 36.8 |  |  |  | 31.6
GUGUUUUAUGUAGGAUAUGCAUACUGUUAGUAUGCAGAAGGACAUGAGGAUCACCCAUGUAUAUUAUUAUUAUAUAUCAUACAU [MOD2 of Hoglahoo's Title] (Eterna round: R96, puzzle: Exclusion NG 1) | 98 | 18.9 |  |  |  | 16
UGAUCACAUGAGGAUCACCCAUGUCAGGAUAUCGUCACUGGAGCCUCGGCUCCAGUGACGAGAAGGGACAUAAU [E1/3-A2] (Eterna round: R97, puzzle: Exclusion 1) | 137 | 253 |  |  |  | 
CCGUCCCGCCCUGGGUGGGACAUGAGGAUCACCCAUGUGGGUUUUCUUUCUUUCACCCGGGCGGGCGGGCGGGCUGG [sensor,turn-off variant1(1)] (Eterna round: R97, puzzle: Sensor, turn-off variant 1) | 20.4 | 54.8 |  |  |  | 
AGUACUAUGCGAGCUGACUUGCGUAGUGCAGCAGGUGAAACAUGAGGAUCACCCAUGUCCUCAUUUGCUCGUCUUAU [Mat - Sensor v3 - Turn-off var 2 - D2] (puzzle: Sensor v3, turn-off variant 2) |  |  | 502 | 34.3 | 33.8 | 
ACGUGAUAUCUGUCGGUGGACAUGAGGAUCACCCAUGUAAGCUUUUUGCUUGUCUUAUAACCCGGUGACAGACCUUC [Inxeer] (Eterna round: R96, puzzle: Sensor v3, turn-off variant 1) | 35.5 | 35.1 |  |  |  | 349
CUGGUCCGAGGAUAUAUGAUGUGAUACAUGAGGAUCACCCAUGUUAUAUUAUGGAUGUAAAUAGAAGGCGGACUAG [Mat - Exclusion 5 - JL mod - D71] (puzzle: Exclusion 5) |  |  | 72.2 | 71.2 | 73.9 | 
GGUACUAACACGAGAGUGUUAGUACUAUAAGCUUGUGUUACAUGAGGAUCACCCAUGUCCUCAUAAGCUCGUCUUGU [Mat - Sensor v3 - Turn-off var 2 - D88] (puzzle: Sensor v3, turn-off variant 2) |  |  | 54.8 | 48.2 | 46.8 | 
GCCUCACAUGAGGAUCACCCAUGUCAGGAUAUAGGAGACGGUAGCUUUGCUGCCAUCGCUAGAAGGGACUGGCU (puzzle: Exclusion 1) |  |  | 65.6 |  |  | 
ACAUGUCAUUGAGGAUAUCGCACACAUGAGGAUCACCCAUGUAAACGGAUGCUCUUUCGUGGUUUCGAGAAGGCGAUGUACAUU [Ex NG2 #97] (Eterna round: R96, puzzle: Exclusion NG 2) | 438 | 182 |  |  |  | 335
AAAAUAAAAGUCAGGAUAUUCCUACAACGACUAAGGAAGAAGGGACAUGAGGAUCACCCAUGUGGUCUUCCGAA [Onesti] (puzzle: Brourd's mod of Exclusion 4) |  |  | 17.8 | 42.5 | 15.1 | 
AAGAUGUGAGGAUAUCACGAGAGCGUCACACGGACGCCCUCUGAGAAGGCACAUGAGGAUCACCCAUGUCCAAA [EX4 A.22] (Eterna round: R97, puzzle: Exclusion 4) | 387 | 65 |  |  |  | 
GCAGCAUAGAUUACUAGCUGUUACAUGAGGAUCACCCAUGUUCAGGAUAUGGUCUGGAUUACAGGCCAGAAGGGAACAAGCUGC [finally!] (Eterna round: R96, puzzle: Exclusion NG 3) | 14.2 | 16.6 |  |  |  | 12.9
AGCUAACGAACAGGAUAUCCAAAGCGAUAGCAGGGAGAAGGGUUCAGAACUUGAGGAUCACCCAAGUGGGCUGAGCUCGGGAAA [Mutated MS2 EX1.3] (Eterna round: R96, puzzle: Exclusion NG 1) | 12 | 20.9 |  |  |  | 12.6
